Measurements as given in FireProtDB (doi:10.1021/bi00437a058).

B1: Ribonuclease, P00648 (parent)
chain: MMKMEGIALKKRLSWISVCLLVLVSAAGMLFSTAAKTETSSHKAHTEAQVINTFDGVADYLQTYHKLPDNYITKSEAQALGWVASKGNLADVAPGKSIGGDIFSNREGKLPGKSGRTWREADINYTSGFRNSDRILYSSDWLIYKTTDHYQTFTKIR

Variants of: B1
Conditions: Bacillus amyloliquefaciens, pH 6.3, Fluorescence, structure 1BNI, whole UniProt chain shown
[1] = 25 °C, GdnHCl, MES 450 mM, reversible: yes (100%)
[2] = 25 °C, Urea, MES 450 mM, reversible: yes (100%)
[3] = 48 °C, Thermal, MES 50 mM, reversible: yes (>85%)
[4] = Thermal, MES 50 mM, reversible: yes (>85%)

Variant	ddG of mutation (higher = less stable) [1] [kcal/mol]	denaturant m value [1] [kcal/mol/M]	denaturant midpoint (higher = more stable) [1] [M]	unfolding free energy [1] [kcal/mol]	ddG of mutation (higher = less stable) [2] [kcal/mol]	denaturant m value [2] [kcal/mol/M]	denaturant midpoint (higher = more stable) [2] [M]	unfolding free energy [2] [kcal/mol]	ddG of mutation (higher = less stable) [3] [kcal/mol]	Tm [4] [°C]	change of melting temperature, mutant - wild type (higher = more stable) [4] [°C]	unfolding enthalpy (van 't Hoff) [4] [kcal/mol]
MMKMEGIALKKRLSWISVCLLVLVSAAGMLFSTAAKTETSSHKAHTEAQVINTFDGVADYLQTYHKLPDNYITKSEAQALGWVASKGNLADVAPGKSIGGDIFSNREGKLPGKSGRTWREADINYTSGFRNSDRILYSSDWLAYKTTDHYQTFTKIR [I143A]	2.72	4.87	1.26	6.16	3.13	2.18	2.89	6.29	3.2	44.9	-9.6	112
MMKMEGIALKKRLSWISVCLLVLVSAAGMLFSTAAKTETSSHKAHTEAQVINTFDGVADYLQTYHKLPDNYITKSEAQALGWVASKGNLADVAPGKSIGGDIFSNREGKLPGKSGRTWREADINYTSGFRNSDRILYSSDWLVYKTTDHYQTFTKIR [I143V]	0.69	4.64	1.76	8.19	0.74	2.11	4.11	8.68	–	51.5	-2.4	121
MMKMEGIALKKRLSWISVCLLVLVSAAGMLFSTAAKTETSSHKAHTEAQVINTFDGVADYAQTYHKLPDNYITKSEAQALGWVASKGNLADVAPGKSIGGDIFSNREGKLPGKSGRTWREADINYTSGFRNSDRILYSSDWLIYKTTDHYQTFTKIR [L61A]	–	–	–	–	4.65	2.08	2.29	4.77	4.2	42	-11.9	108
MMKMEGIALKKRLSWISVCLLVLVSAAGMLFSTAAKTETSSHKAHTEAQVINTFDGVADYLQTYHKLPDNYITKSEAQALGWVASKGNLADVAPGKSIGGDIFSNREGKLPGKSGRTWREADINYTSGFRNSDRALYSSDWLIYKTTDHYQTFTKIR [I135A]	–	–	–	–	4.08	2.16	2.47	5.34	3.9	42.7	-11.2	106
MMKMEGIALKKRLSWISVCLLVLVSAAGMLFSTAAKTETSSHKAHTEAQVINTFDGVADYLQTYHKLPDNYITKSEAQALGWVASKGNLADVAPGKSIGGDIFSNREGKLPGKSGRTWREADINYTSGFRNSDRVLYSSDWLIYKTTDHYQTFTKIR [I135V]	–	–	–	–	1.47	2.06	3.87	7.95	–	51	-2.9	117
